Drawing on patent publication US20240279281A1, “Peptide Inhibitors of Interleukin-23 Receptor” (Janssen Pharmaceutica NV, priority 2023, published 2024), this text covers IL23R Reporter Assay IC50 and PBMC pSTAT3 IC50 for 21 molecules.

Starred links: 1 amine or outer side, 2 acyl side, 3 side chain; linkers in the order of their positions; H or OH if unused. Positions of bridges follow the written chain, without caps; N, C: chain ends. Non-standard residues stand in square brackets, D forms with d. No end group written: not given here. X1 = 3‑(7-(3-acetamidophenyl)-1H-indol-3-yl)‑2‑aminopropanoic acid, CC(=O)Nc1cccc(-c2cccc3c(CC(N[*:1])C(=O)[*:2])c[nH]c23)c1; AEF(G) = 2-amino-3-(4-(2-guanidinoethoxy)phenyl)propanoic acid, N=C(N)NCCOc1ccc(C[C@H](N[*:1])C(=O)[*:2])cc1; X10 = 2‑amino‑3‑(4-(2-guanidinoethoxy)phenyl)propanoic acid, N=C(N)NCCOc1ccc(CC(N[*:1])C(=O)[*:2])cc1; Trp(7-(3-AcNH-Ph)) = CC(=O)Nc1cccc(-c2cccc3c(C[C@H](N)C(=O)O)c[nH]c23)c1; 2Nal(6-OH) = N[C@@H](Cc1ccc2cc(O)ccc2c1)C(=O)O; Trp(7-Me) = Cc1cccc2c(C[C@H](N)C(=O)O)c[nH]c12; d(hLys(Me3)) = C[N+](C)(C)CCCCC[C@@H](N)C(=O)O; dLys(Me3) = C[N+](C)(C)CCCC[C@@H](N)C(=O)O; AEF = NCCOc1ccc(C[C@H](N)C(=O)O)cc1; 3Pal = N[C@@H](Cc1cccnc1)C(=O)O; Lipidated = not defined here; NMeK = CN[C@@H](CCCCN)C(=O)O; Pen = CC(C)(S)[C@H](N)C(=O)O; αMeC = C[C@](N)(CS)C(=O)O; lipid = not defined here; Thp = NC1(C(=O)O)CCOCC1; Abu = CC[C@H](N)C(=O)O; PEG = not defined here; Sar = CNCC(=O)O Bounds are passed on as bounds.

In this assay the target is T1, interleukin-23 receptor (IL-23R), Q5VWK5.
T1 chain: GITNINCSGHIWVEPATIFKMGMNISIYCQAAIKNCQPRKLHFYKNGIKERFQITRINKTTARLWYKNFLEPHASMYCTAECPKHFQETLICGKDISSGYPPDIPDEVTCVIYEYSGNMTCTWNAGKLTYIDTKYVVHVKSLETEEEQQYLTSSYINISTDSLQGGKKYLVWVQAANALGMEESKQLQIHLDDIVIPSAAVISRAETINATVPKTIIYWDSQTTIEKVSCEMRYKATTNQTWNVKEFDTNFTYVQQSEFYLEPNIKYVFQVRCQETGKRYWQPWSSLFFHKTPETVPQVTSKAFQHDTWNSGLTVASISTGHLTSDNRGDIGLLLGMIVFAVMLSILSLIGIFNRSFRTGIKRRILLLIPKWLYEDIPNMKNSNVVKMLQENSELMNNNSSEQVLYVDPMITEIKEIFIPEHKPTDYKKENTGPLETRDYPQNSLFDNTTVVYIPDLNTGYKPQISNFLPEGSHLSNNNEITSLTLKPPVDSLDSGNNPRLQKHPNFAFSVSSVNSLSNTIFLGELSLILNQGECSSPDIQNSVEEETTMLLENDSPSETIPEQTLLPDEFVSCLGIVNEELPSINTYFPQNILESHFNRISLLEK
The assay can be described thus: cell-based or functional assay.

B1: SEQ ID NO: 189 (peptide)
peptide: [Pen]NT[Trp(7-Me)]K(Lipidated)[Pen][2‑amino‑3‑(4-(2-aminoethoxy)phenyl)propanoic acid][2‑amino‑3‑(6-hydroxynaphthalen-2-yl)propanoic acid][Thp]K(Ac)N[3Pal][Sar]
modifications: disulfide 1-6 (inferred); ends not checked; also: K5 lipidated lysine, lipid not given here
Molecule B1 came in with an IL23R Reporter Assay IC50 above 100 nM and a PBMC pSTAT3 IC50 below 1 nM.

B2: SEQ ID NO: 278 (peptide)
peptide: [Pen]NT[Trp(7-Me)]K(Ac)[Pen][2‑amino‑3‑(4-(2-aminoethoxy)phenyl)propanoic acid][2‑amino‑3‑(6-hydroxynaphthalen-2-yl)propanoic acid][Thp]K(Ac)N[3Pal][Sar]K(lipid)
modifications: disulfide 1-6 (inferred); ends not checked; also: K14: lipidated lysine
Regarding B2, the IL23R Reporter Assay IC50 is above 100 nM and the PBMC pSTAT3 IC50 was below 1 nM.

B3: SEQ ID NO: 187 (peptide)
peptide: [d(hLys(Me3))][Pen]NT[Trp(7-Me)]K(Lipidated)[Pen][2‑amino‑3‑(4-(2-aminoethoxy)phenyl)propanoic acid][2‑amino‑3‑(6-hydroxynaphthalen-2-yl)propanoic acid][Thp]K(Ac)N[3Pal][Sar]
modifications: disulfide 2-7 (inferred); ends not checked; also: K6 lipidated lysine, lipid not given here
B3 showed an IL23R Reporter Assay IC50 above 100 nM and a PBMC pSTAT3 IC50 below 1 nM.

B4: SEQ ID NO: 200 (peptide)
peptide: [Pen]NT[Trp(7-Me)]K(Lipidated)[Pen][2‑amino‑3‑(4-(2-aminoethoxy)phenyl)propanoic acid][2‑amino‑3‑(6-hydroxynaphthalen-2-yl)propanoic acid][Thp]K(PEG)N[3Pal][Sar]
modifications: disulfide 1-6 (inferred); ends not checked; also: lipid structure not given here, PEG size not given here
B4 came in with an IL23R Reporter Assay IC50 above 100 nM and a PBMC pSTAT3 IC50 below 1 nM.

B5: SEQ ID NO: 279 (peptide)
peptide: R[Pen]NT[Trp(7-Me)]K(Ac)[Pen][AEF][2Nal(6-OH)][Thp]EN[3Pal][NMeK](lipid)
modifications: disulfide 2-7 (inferred); not fully specified; ends not checked
Turning to B5, the IL23R Reporter Assay IC50 is above 100 nM and the PBMC pSTAT3 IC50 was below 1 nM.

B6: SEQ ID NO: 32 (peptide)
peptide: R[Pen]NT[Trp(7-Me)]K(Ac)[Pen][AEF(G)][2Nal(6-OH)][Thp]EN[3Pal][Sar]
modifications: ends and bridges not checked
For the molecule B6, the IL23R Reporter Assay IC50 is below 10 nM and the PBMC pSTAT3 IC50 is below 10 pM.

B7: SEQ ID NO: 29 (peptide)
peptide: R[Abu]NTWK(Ac)[αMeC][AEF][2Nal(6-OH)][Thp]K(Ac)N[3Pal][Sar]
modifications: ends and bridges not checked
B7 came in with an IL23R Reporter Assay IC50 below 10 nM and a PBMC pSTAT3 IC50 below 0.1 nM.

B8: SEQ ID NO: 183 (peptide)
peptide: [Pen]NT[Trp(7-Me)]K(Lipidated)[Pen][5‑(4-(2-amino-2-carboxyethyl)phenoxy)‑N,N,N‑trimethylpentan‑1‑aminium][2‑amino‑3‑(6-hydroxynaphthalen-2-yl)propanoic acid][Thp]K(Ac)N[3Pal][Sar]
modifications: disulfide 1-6 (inferred); ends not checked; also: K5 lipidated lysine, lipid not given here
Turning to B8, the IL23R Reporter Assay IC50 was above 100 nM and the PBMC pSTAT3 IC50 was below 1 nM.

B9: SEQ ID NO: 35 (peptide)
peptide: R[Pen]NT[X1]K(Ac)[Pen][X10][2‑amino‑3‑(6-hydroxynaphthalen-2-yl)propanoic acid][Thp]EN[3Pal][Sar]
modifications: ends and bridges not checked
For the molecule B9, the IL23R Reporter Assay IC50 was below 10 nM and the PBMC pSTAT3 IC50 was below 0.1 nM.

B10: SEQ ID NO: 276 (peptide)
peptide: [Pen]K(lipid)T[Trp(7-Me)]K(Ac)[Pen][2‑amino‑3‑(4-(2-aminoethoxy)phenyl)propanoic acid][2‑amino‑3‑(6-hydroxynaphthalen-2-yl)propanoic acid][Thp]EN[3Pal][Sar]
modifications: disulfide 1-6 (inferred); ends not checked; also: K2: lipidated lysine
With B10, the IL23R Reporter Assay IC50 is above 100 nM and the PBMC pSTAT3 IC50 is below 1 nM.

B11: SEQ ID NO: 24 (peptide)
peptide: [Pen]NT[Trp(7-Me)]K(Ac)[Pen][X10][2Nal(6-OH)][Thp]EN[3Pal][Sar]
modifications: ends and bridges not checked
The molecule B11 yielded an IL23R Reporter Assay IC50 below 10 nM and a PBMC pSTAT3 IC50 below 0.1 nM.

B12: SEQ ID NO: 33 (peptide)
peptide: [dLys(Me3)][Pen]NT[Trp(7-(3-AcNH-Ph))]K(Ac)[Pen][AEF(G)][2Nal(6-OH)][Thp]EN[3Pal][Sar]
modifications: ends and bridges not checked
In the case of B12, the IL23R Reporter Assay IC50 was below 10 nM and the PBMC pSTAT3 IC50 is below 10 pM.

B13: SEQ ID NO: 28 (peptide)
peptide: R[Abu]NTWK(Ac)[αMeC][AEF][2Nal(6-OH)][Thp]K(Ac)N[3Pal][Sar]
modifications: ends and bridges not checked
For B13, the IL23R Reporter Assay IC50 was below 10 nM.

B14: SEQ ID NO: 4 (peptide)
peptide: RCNT[Trp(7-Me)]K(Ac)[αMeC][AEF][2Nal(6-OH)][Thp]EN[3Pal][Sar]
modifications: ends and bridges not checked
B14 yielded an IL23R Reporter Assay IC50 below 10 nM.

B15: SEQ ID NO: 3 (peptide)
peptide: [Pen]NT[Trp(7-Me)]K(Ac)[Pen][AEF][2Nal(6-OH)][Thp]EN[3Pal][Sar]
modifications: ends and bridges not checked
Take B15: the IL23R Reporter Assay IC50 is below 10 nM.

B16: SEQ ID NO: 39 (peptide)
peptide: R[Pen]NT[X1]K(Ac)[Pen][5‑(4-(2-amino-2-carboxyethyl)phenoxy)‑N,N,N‑trimethylpentan‑1‑aminium][2‑amino‑3‑(6-hydroxynaphthalen-2-yl)propanoic acid][Thp]EN[3Pal][Sar]
modifications: not fully specified (bridges); ends and bridges not checked
Molecule B16 showed an IL23R Reporter Assay IC50 below 10 nM.

B17: SEQ ID NO: 222 (peptide)
peptide: R[Pen]NT[Trp(7-Me)]K(Ac)[Pen][2‑amino‑3‑(4-(2-aminoethoxy)phenyl)propanoic acid][2‑amino‑3‑(6-hydroxynaphthalen-2-yl)propanoic acid][Thp]K(Ac)N[3Pal][Sar]K(lipid)
modifications: disulfide 2-7 (inferred); ends not checked; also: Lys15 lipidated, lipid not given here
With B17, the IL23R Reporter Assay IC50 is above 100 nM and the PBMC pSTAT3 IC50 was above 1 nM.

B18: SEQ ID NO: 219 (peptide)
peptide: R[Pen]NT[Trp(7-Me)]K(Ac)[Pen][2‑amino‑3‑(4-(2-aminoethoxy)phenyl)propanoic acid][2‑amino‑3‑(6-hydroxynaphthalen-2-yl)propanoic acid][Thp]K(Ac)N[3Pal][Sar]
modifications: disulfide 2-7 (inferred); ends not checked
The molecule B18 showed an IL23R Reporter Assay IC50 below 10 nM and a PBMC pSTAT3 IC50 below 0.1 nM.

B19: SEQ ID NO: 188 (peptide)
peptide: [Pen]NT[Trp(7-Me)]K(Lipidated)[Pen][2‑amino‑3‑(4-(2-aminoethoxy)phenyl)propanoic acid][2‑amino‑3‑(6-hydroxynaphthalen-2-yl)propanoic acid][Thp]K(Ac)N[3Pal][Sar]
modifications: disulfide 1-6 (inferred); ends not checked; also: K5 lipidated lysine, lipid not given here
Molecule B19 displayed an IL23R Reporter Assay IC50 above 100 nM and a PBMC pSTAT3 IC50 below 1 nM.

B20: SEQ ID NO: 275 (peptide)
peptide: [Pen]NT[Trp(7-Me)]K(Ac)[Pen][2‑amino‑3‑(4-(2-aminoethoxy)phenyl)propanoic acid][2‑amino‑3‑(6-hydroxynaphthalen-2-yl)propanoic acid][Thp]K(Ac)N[3Pal][Sar]K(lipid)
modifications: disulfide 1-6 (inferred); ends not checked; also: K14: lipidated lysine
As to B20, the IL23R Reporter Assay IC50 is above 100 nM and the PBMC pSTAT3 IC50 is below 1 nM.

B21: SEQ ID NO: 37 (peptide)
peptide: [dLys(Me3)][Pen]NT[X1]K(Ac)[Pen][5‑(4-(2-amino-2-carboxyethyl)phenoxy)‑N,N,N‑trimethylpentan‑1‑aminium][2‑amino‑3‑(6-hydroxynaphthalen-2-yl)propanoic acid][Thp]EN[3Pal][Sar]
modifications: ends and bridges not checked
Regarding B21, the IL23R Reporter Assay IC50 is below 10 nM.
